The results in this text go back to patent US9879094B2, “Nucleic acid molecules encoding for BACE1 antibodies” (Genentech, Inc., priority 2010, dated 2018).

For assay [1], the target named is Guinea pig BACE1 (Cavia porcellus, UniProt Q1KLR6). Description: BIAcore SPR binding kinetics, guinea pig BACE1. Particulars: guinea pig BACE1, pH 7.0. For orientation: In SPR one partner is held on a chip, and binding of the other changes the refractive index at the surface.
In assay [2] the test system is Aβ1-40 in Cynomolgus monkeys. The assay is described as follows: Cynomolgus monkeys, single IV dose, Aβ1-40 in plasma and CSF. Format: in vivo, Cynomolgus monkey. The note with it: 30 mg/kg IV. As to the method: Cynomolgus monkeys were dosed with control IgG or YW412.8.31 anti-BACE1 antibody (30 mg/kg) by IV delivery. Plasma and CSF were sampled up to 7 days prior to dosing to set mean baseline Aβ1-40 levels in each in individual animal, and then at various times after dosing. Total anti-BACE1 or control antibody concentrations in monkey serum and CSF samples were measured using monkey-adsorbed goat anti-human IgG polyclonal antibody (Bethyl, Montgomery, Tex.) as both coat and detection (FIG. 20). Free anti-BACE1 antibody concentrations in monkeys were determined using BACE1 ECD as coat and the monkey-adsorbed goat anti-human IgG antibody (Bethyl) for detection.
Aβ1-40 levels in plasma and CSF from Cynomolgus monkeys tested was also determined. Briefly, the concentrations of total cyno Aβ1-40 in plasma were determined using MSD MA6000 Human (6E10) Abeta Kit (Cat#K111BVE-2, Meso Scale Diagnostics) according to the Manufacturer's instructions. The capture antibody, specific for the C terminus of Aβ1-40, was pre-coated on the plates, and Sulfo-Tag anti-Aβ monoclonal antibody 6E10 was used for detection. The assay had lower limit of quantification values of 49.4 pg/ml in plasma. The concentrations of total cyno Aβ1-40 in CSF were determined using a sandwich ELISA. […]

Chain of Guinea pig BACE1 (Q1KLR6 46-473): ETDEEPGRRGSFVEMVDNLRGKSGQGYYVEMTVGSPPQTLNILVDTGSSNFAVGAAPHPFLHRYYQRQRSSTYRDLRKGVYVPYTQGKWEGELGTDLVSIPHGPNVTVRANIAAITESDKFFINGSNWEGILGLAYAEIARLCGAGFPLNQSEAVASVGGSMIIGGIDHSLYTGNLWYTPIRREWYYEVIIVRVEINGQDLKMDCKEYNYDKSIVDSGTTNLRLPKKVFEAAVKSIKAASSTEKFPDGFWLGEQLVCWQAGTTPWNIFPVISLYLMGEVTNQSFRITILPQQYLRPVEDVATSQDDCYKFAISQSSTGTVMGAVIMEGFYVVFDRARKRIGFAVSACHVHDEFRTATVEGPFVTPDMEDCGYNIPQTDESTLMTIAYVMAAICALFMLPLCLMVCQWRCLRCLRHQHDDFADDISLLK

B1: YW412.8.31: affinity matured form of YW412.8 anti-BACE1 antibody (antibody, V domains shown)
VH: EVQLVESGGGLVQPGGSLRLSCAASGFTFLGYGIHWVRQAPGKGLEWVGWISPAGGSTDYADSVKGRFTISADTSKNTAYLQMNSLRAEDTAVYYCARGPFSPWVMDYWGQGTLVTVSS
VL: DIQMTQSPSSLSASVGDRVTITCRASQDVSTAVAWYQQKPGKAPKLLIYSASFLYSGVPSRFSGSGSGTDFTLTISSLQPEDFATYYCQQFPTYLPTFGQGTKVEIK
B1: in assay [1], the KOFF is reported as 2.7 × 10^−4 S^−1 and the KON is reported as 1.0 × 10^5 M^−1S^−1. In addition, in assay [2] (1 and 3 days following dosing), the “reduction of CSF Aβ1-40” value is “up to 50%”. Moreover, in assay [2] (sustained over 7 days), the “reduction of plasma Aβ1-40 from baseline” value is on record as roughly 50%.
